Assay results published in the supplement of paper PMC10065799, “High-throughput profiling of sequence recognition by tyrosine kinases and SH2 domains using bacterial peptide display” (eLife, 2023).

How the values were obtained:
Fer (mouse) = assay: phosphorylation enrichment, bacterial display (enrichment ratio); higher = better substrate or ligand; peptides without Tyr show the background
Hck = Hck (UniProt P08631); assay: as above
Jak2 = Jak2 (UniProt O60674); assay: as above
Fyn = Fyn (UniProt P06241); assay: as above
c-Abl (mouse) = assay: as above
EPHB1 = EPHB1 (UniProt P54762); assay: as above
Fes = Fes (UniProt P07332); assay: as above
FGFR3 = FGFR3 (UniProt P22607); assay: as above
EPHB2 = EPHB2 (UniProt P29323); assay: as above
c-Src = assay: as above
AncSZ = assay: as above
MERTK = MERTK (UniProt Q12866); assay: as above
FGFR1 = FGFR1 (UniProt P11362); assay: as above
Grb2 SH2 = Grb2 SH2 (UniProt P62993); assay: SH2 binding enrichment of the phosphorylated peptide, bacterial display (enrichment ratio); higher = better substrate or ligand; peptides without Tyr show the background
c-Src SH2 = assay: as above
SHP2-C SH2 = assay: as above
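Throughout, for SH2 binding enrichment of the phosphorylated peptide, bacterial display: peptide library displayed on the E. coli surface as eCPX fusions, selected cells deep-sequenced, score is each peptide's frequency after selection divided by its frequency in the input.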
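Throughout, for phosphorylation enrichment, bacterial display: 11-residue human phosphosite peptides and single-mutation variants displayed on the E. coli surface, counted by deep sequencing, each peptide's frequency after selection divided by its frequency in the unselected input library; frequency after pTyr selection over input frequency; kinase dosed for 20-30% of maximal phosphorylation in three min.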

Chain of Fyn (P06241 whole entry, looked up): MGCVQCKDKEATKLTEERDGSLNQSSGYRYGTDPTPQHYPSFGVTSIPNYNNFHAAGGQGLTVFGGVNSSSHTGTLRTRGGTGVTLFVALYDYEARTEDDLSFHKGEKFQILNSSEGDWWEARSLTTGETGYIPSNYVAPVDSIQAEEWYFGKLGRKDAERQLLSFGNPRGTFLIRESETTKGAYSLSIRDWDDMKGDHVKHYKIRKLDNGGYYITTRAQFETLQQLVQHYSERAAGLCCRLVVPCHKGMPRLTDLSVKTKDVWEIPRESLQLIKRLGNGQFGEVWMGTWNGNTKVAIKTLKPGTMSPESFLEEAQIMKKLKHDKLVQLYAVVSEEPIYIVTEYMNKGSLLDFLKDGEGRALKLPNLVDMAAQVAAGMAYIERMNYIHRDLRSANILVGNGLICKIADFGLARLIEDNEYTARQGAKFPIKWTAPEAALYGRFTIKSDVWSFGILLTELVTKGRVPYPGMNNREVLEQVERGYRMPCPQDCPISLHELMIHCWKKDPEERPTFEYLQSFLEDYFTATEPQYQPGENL
Chain of Hck (P08631 whole entry, looked up): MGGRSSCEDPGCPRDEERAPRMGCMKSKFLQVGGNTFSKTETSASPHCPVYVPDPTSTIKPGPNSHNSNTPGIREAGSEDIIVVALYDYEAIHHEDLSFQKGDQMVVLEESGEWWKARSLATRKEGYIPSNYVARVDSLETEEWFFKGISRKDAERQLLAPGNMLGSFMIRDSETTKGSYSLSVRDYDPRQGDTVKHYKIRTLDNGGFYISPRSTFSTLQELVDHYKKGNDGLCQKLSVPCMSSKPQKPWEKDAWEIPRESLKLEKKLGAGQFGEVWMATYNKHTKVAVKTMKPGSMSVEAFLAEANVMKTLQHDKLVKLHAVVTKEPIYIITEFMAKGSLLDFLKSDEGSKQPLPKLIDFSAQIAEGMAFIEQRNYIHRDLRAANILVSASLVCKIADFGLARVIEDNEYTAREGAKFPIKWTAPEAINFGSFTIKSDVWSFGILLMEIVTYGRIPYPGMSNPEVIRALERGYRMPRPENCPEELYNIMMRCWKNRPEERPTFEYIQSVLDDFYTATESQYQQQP
Chain of EPHB1 (P54762 whole entry, looked up): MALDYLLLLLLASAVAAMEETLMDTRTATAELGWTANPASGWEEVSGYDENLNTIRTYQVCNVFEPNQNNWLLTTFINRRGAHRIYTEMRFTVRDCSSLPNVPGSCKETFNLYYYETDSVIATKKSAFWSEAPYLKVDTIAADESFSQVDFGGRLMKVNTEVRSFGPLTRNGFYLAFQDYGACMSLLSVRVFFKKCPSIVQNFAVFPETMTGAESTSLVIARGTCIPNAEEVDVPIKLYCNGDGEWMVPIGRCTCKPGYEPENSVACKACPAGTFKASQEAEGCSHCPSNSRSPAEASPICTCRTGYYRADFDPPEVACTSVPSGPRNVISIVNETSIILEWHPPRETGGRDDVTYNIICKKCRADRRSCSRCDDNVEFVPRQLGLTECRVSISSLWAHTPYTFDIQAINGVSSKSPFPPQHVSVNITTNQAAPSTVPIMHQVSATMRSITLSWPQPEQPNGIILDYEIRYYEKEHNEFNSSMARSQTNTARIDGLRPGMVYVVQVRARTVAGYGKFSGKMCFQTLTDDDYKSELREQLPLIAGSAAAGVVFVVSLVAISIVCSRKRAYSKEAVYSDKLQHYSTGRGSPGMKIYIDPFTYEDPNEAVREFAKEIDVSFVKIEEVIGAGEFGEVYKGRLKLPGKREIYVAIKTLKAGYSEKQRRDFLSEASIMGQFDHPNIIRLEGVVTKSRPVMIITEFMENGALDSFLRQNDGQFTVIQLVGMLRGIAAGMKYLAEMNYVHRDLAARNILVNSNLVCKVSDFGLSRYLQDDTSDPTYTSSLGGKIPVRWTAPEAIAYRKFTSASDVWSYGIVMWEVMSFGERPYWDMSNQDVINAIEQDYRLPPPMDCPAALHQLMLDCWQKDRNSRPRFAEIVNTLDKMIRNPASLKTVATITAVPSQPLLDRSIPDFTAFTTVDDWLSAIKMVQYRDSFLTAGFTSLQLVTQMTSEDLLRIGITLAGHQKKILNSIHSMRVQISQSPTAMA
Chain of FGFR1 (P11362 whole entry, looked up): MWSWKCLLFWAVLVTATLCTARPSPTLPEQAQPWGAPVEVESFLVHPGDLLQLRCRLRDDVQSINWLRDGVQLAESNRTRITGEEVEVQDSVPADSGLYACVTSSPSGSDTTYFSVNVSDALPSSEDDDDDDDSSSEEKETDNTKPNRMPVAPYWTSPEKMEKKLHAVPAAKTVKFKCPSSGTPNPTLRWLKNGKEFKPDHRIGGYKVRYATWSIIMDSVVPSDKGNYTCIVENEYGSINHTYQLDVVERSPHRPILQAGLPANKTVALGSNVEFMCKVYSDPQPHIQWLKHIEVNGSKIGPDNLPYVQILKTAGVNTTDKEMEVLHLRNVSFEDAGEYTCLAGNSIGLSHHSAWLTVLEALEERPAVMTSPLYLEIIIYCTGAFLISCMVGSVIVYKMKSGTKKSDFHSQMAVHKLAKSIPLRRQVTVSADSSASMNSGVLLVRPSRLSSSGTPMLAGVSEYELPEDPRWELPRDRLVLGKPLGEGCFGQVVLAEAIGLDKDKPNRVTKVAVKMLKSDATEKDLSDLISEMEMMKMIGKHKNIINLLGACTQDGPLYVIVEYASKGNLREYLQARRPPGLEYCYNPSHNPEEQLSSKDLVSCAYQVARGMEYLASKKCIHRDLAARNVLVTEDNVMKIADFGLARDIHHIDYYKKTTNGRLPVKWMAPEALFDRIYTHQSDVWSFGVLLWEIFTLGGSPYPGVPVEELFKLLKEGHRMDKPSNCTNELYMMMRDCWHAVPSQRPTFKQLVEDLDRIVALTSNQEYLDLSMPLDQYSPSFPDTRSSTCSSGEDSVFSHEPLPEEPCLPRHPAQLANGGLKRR
Chain of Fes (P07332 whole entry, looked up): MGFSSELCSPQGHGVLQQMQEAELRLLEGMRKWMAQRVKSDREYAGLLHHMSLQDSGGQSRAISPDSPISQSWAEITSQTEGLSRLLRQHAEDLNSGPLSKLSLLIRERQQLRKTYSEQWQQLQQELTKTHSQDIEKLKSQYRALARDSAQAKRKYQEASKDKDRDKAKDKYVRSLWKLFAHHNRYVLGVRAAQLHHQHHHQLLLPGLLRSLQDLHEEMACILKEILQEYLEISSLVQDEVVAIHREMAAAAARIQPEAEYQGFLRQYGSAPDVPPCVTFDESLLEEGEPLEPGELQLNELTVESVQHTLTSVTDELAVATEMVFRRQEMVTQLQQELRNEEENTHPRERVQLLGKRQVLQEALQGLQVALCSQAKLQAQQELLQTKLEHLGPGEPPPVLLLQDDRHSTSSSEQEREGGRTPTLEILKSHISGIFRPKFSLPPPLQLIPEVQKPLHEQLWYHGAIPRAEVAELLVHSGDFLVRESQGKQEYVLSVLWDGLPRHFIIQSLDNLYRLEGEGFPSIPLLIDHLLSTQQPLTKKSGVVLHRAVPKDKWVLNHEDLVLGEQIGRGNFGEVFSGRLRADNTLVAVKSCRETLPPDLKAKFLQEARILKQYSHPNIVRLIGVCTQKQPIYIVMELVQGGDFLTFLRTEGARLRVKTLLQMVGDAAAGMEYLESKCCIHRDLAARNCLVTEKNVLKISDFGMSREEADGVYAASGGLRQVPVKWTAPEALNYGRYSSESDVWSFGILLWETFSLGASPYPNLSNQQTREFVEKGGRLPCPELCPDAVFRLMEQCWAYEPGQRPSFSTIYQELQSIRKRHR
Chain of MERTK (Q12866 whole entry, looked up): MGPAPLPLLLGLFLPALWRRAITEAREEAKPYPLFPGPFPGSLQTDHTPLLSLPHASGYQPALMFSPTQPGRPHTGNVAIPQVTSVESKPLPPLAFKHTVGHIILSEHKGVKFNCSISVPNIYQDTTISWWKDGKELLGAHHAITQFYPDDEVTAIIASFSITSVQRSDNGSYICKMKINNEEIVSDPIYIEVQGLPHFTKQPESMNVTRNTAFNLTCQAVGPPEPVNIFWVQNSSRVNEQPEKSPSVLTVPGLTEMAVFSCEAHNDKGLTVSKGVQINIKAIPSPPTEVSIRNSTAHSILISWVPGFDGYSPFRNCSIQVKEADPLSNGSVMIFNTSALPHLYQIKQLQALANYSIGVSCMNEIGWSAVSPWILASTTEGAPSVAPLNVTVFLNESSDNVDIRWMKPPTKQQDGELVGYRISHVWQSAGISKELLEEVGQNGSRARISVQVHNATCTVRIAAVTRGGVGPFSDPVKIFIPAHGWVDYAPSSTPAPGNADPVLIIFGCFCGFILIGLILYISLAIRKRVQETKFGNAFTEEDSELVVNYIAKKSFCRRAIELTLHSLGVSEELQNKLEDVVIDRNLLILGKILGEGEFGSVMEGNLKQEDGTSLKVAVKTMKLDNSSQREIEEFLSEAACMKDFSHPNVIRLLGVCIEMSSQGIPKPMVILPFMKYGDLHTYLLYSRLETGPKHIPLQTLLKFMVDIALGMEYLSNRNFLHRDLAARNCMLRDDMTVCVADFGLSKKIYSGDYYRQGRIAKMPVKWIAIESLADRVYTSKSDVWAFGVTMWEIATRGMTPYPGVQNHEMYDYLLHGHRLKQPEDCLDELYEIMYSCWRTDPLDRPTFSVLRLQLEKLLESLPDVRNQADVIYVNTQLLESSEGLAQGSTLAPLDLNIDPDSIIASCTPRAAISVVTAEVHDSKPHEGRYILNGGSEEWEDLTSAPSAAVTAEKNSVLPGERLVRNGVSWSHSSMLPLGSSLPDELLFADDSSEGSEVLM

Sequence	SH2 binding enrichment (Grb2 SH2)	SH2 binding enrichment (c-Src SH2)	SH2 binding enrichment (SHP2-C SH2)	phosphorylation enrichment (Fer (mouse))	phosphorylation enrichment (Hck)	phosphorylation enrichment (Jak2)	phosphorylation enrichment (Fyn)	phosphorylation enrichment (c-Abl (mouse))	phosphorylation enrichment (EPHB1)	phosphorylation enrichment (Fes)	phosphorylation enrichment (FGFR3)	phosphorylation enrichment (EPHB2)	phosphorylation enrichment (c-Src)	phosphorylation enrichment (AncSZ)	phosphorylation enrichment (MERTK)	phosphorylation enrichment (FGFR1)
RSPLRYTSILT [OR51B6_Y130]	1.67	2.87	3.94	0.492	0.443	0.655	0.64	0.632	0.426	0.843	0.431	0.532	0.392	0.679	0.392	0.536
DGKYSYLKVGH [GRM3_Y480_G475D]	1.05	4.12	1.45	0.372	0.455	0.437	0.372	0.284	0.303	0.623	0.427	0.297	0.352	0.442	0.44	0.38
TAALWYIYLHT [ENG_Y612_S615L]	0.989	0.514	0.52	0.769	0.579	1.55	0.587	1.18	0.796	1.66	1.1	0.639	0.566	1.41	0.516	0.81
IDDNQYAYLKA [HNF4A_Y286_E285Q]	0.87	1.47	0.898	1	2.12	0.753	0.668	1.02	0.558	0.91	1.69	0.667	0.48	0.993	0.876	2.93
QAFSWYQHQRA [NDST1_Y714_R709Q_YF]	0.778	0.709	0.86	0.863	0.547	1.43	0.658	0.731	1.03	1.64	1.02	0.71	0.371	1.61	0.569	0.687
VAVTKYCKEEL [ATP7B_Y1078]	0.813	0.53	0.729	0.494	0.593	0.844	0.455	0.651	0.508	0.917	0.776	0.547	0.477	0.877	0.37	0.498
KAEQLYIGVTV [EFHC2_Y509_E507Q]	0.708	0.454	0.733	6.51	3.03	0.964	2.33	0.876	1.27	1.25	2.88	0.758	2.33	1.84	2.99	3.47
LQLLGHRPVFS [CHST6_Y358_Y358H_YF]	0.912	0.544	0.923	0.817	0.957	1.03	0.786	0.919	0.847	1.33	0.785	0.783	0.579	0.901	0.602	0.657
INITIYGKTFR [EFHC1_Y177]	1.01	0.5	0.658	0.936	0.573	1.4	0.438	1.05	0.648	1.37	0.781	0.683	0.508	1.13	0.439	0.583
EALDFYGEVRI [PTEN_Y155_T160I]	1.09	0.499	0.567	1.55	1.13	2.03	1.64	1.11	0.871	1.73	1.1	0.614	1.44	1.49	0.494	0.538
TRLAQYDSNSK [BMX_Y216_S212R]	0.962	0.637	0.829	0.445	0.42	0.811	0.44	0.776	0.399	0.684	0.41	0.402	0.643	0.713	0.682	0.527
ETWHNYHKFDS [MATR3_Y243_S240W]	0.865	2.09	0.791	0.395	0.448	0.71	0.468	0.48	0.799	0.755	0.732	0.605	0.439	0.7	0.458	0.942
EKHGQYLIGHG [EPHB4_Y581_D576E]	0.792	0.381	0.664	0.381	0.475	0.555	0.42	0.543	0.413	0.719	0.5	0.408	0.396	0.618	0.46	0.503
LDPDSYNVFEN [FOXC1_Y159_M161V]	0.74	1.59	0.752	0.742	0.613	2.3	0.643	1.93	0.728	2.2	1.31	0.703	0.915	2.1	1.04	0.527
QNTGGYYDLYG [PTPN11_Y62_D61G]	1	7.13	0.755	2.69	8.85	6.15	8.15	1.01	1.85	1.64	10	2.78	5.87	1.32	8.88	13.8
TLNHQYDFTFH [CSNK1A1_Y292_D297H_YF]	1.01	4.74	0.717	0.685	0.559	0.738	0.588	0.735	0.759	1.17	0.785	0.624	0.58	1.02	0.557	0.557
FSEVRYVKEPY [HIPK4_Y170]	0.908	0.624	0.52	0.404	0.388	1.06	0.372	0.783	0.474	1.06	0.538	0.449	0.392	0.9	0.371	0.668
EFITRYIDSLK [PSMA7_Y110_A112D_YF]	0.818	0.552	0.713	0.426	0.501	0.733	0.526	0.483	0.425	0.878	0.639	0.493	0.456	0.785	0.479	0.558

Now from value to sequence, other results behind:

SH2 binding enrichment (Grb2 SH2)	SH2 binding enrichment (c-Src SH2)	SH2 binding enrichment (SHP2-C SH2)	Sequence	phosphorylation enrichment (Fer (mouse))	phosphorylation enrichment (Hck)	phosphorylation enrichment (Jak2)	phosphorylation enrichment (Fyn)	phosphorylation enrichment (c-Abl (mouse))	phosphorylation enrichment (EPHB1)	phosphorylation enrichment (Fes)	phosphorylation enrichment (FGFR3)	phosphorylation enrichment (EPHB2)	phosphorylation enrichment (c-Src)	phosphorylation enrichment (AncSZ)	phosphorylation enrichment (MERTK)	phosphorylation enrichment (FGFR1)
1.05	0.849	0.569	PGRRFYVVACD [RNASE3_Y134]	0.52	0.733	2.05	0.389	1.24	0.536	1.65	0.916	1.19	2.16	1.43	1.22	0.654
0.532	0.389	0.531	RRIHRYRGHLW [VHL_Y112_S111R]	0.376	0.462	0.375	0.468	0.382	0.507	0.524	0.452	0.445	0.49	0.563	0.575	0.43
0.936	0.985	1.03	VLALWYFFLTN [ZDHHC23_Y127_H132N_YF]	0.595	0.62	1.91	0.535	0.904	0.746	1.68	1.94	0.63	0.654	1.16	0.963	2.05
0.796	0.338	0.615	RGFRVCFTPDS [PTPRF_Y450_Y450C_YF]	0.635	1.65	1.97	0.521	1.32	0.64	1.73	0.812	0.462	0.549	1.09	0.551	0.337
0.793	0.777	0.538	FSCLPYGRLAF [SLC52A2_Y305_YF]	0.559	0.936	1.03	0.629	0.882	0.352	1.01	0.649	0.55	2.36	0.935	0.56	0.71
1.2	1.12	1.02	CTTIHQNFMCN [TP53_Y234_Y234Q_YF]	0.421	0.397	0.575	0.435	0.497	0.421	0.855	0.614	0.497	0.391	0.9	0.377	0.459
0.77	0.469	0.627	DNEALYDICFR [TUBB2B_Y208]	10.2	6.43	1.38	6.65	3.58	4.63	1.6	0.917	4.88	5.86	3.21	7.51	0.618
3.88	2.14	0.51	MNKNAYHNVTA [ST3GAL6_Y306]	0.379	0.46	0.443	0.519	0.465	0.686	0.52	0.451	0.341	0.331	0.524	0.404	0.499
0.812	0.6	0.677	EPTPGYEVGQR [TSC2_Y1788]	0.545	0.566	0.672	0.51	0.602	0.472	0.907	0.591	0.585	0.507	0.863	0.491	0.514
1.19	1.01	0.752	SGRSGYCLGTR [SCO1_Y60_P58S]	0.399	0.348	0.617	0.341	0.514	0.309	0.834	0.432	0.535	0.424	0.586	0.55	0.518
1.37	0.83	0.703	FGFPGYQCKHF [TIMP3_Y177_S179C_YF]	0.473	0.506	0.831	0.445	0.716	0.337	0.789	0.535	0.514	0.548	0.695	0.542	0.517
0.934	0.671	0.783	LSFSEYASVQV [SIRPA_Y496_P491L]	5.53	2.93	1.1	3.8	4.03	7.83	1.64	2.1	8.7	2.14	2.44	0.671	2.22
0.979	2.15	0.872	VNTMLYEKFTY [TEK_Y1108_T1106M]	10.4	7.18	0.811	6.38	1.82	8.2	1.03	0.902	6.33	5.53	1.23	7.49	0.856
1.13	1.12	0.909	KMTGRYEMYAR [UPB1_Y362]	0.438	0.549	0.674	0.476	0.54	0.58	0.789	0.487	0.627	0.416	0.828	0.428	0.523
0.878	0.575	0.965	GKTFTYRSVFF [ZNF80_Y200]	0.457	0.374	0.744	0.43	0.693	0.464	0.951	0.562	0.466	0.412	0.809	0.42	0.388
